Measurements from paper PMC5522446, “The N-terminal dimerization is required for TDP-43 splicing activity” (Scientific Reports, 2017).
Numbering of substitutions follows the chain as printed. Each block holds one molecule with its values, some of them ahead of it.

What was measured:
[1] = biological target: TDP(1–77)-C39/C50S (human) (UniProt Q13148); test: SEC; protein at 50 µM; Superdex-200 Increase 10/300 GL; Buffer A (25 mM Tris-HCl, pH 8.0, 150 mM NaCl); room temperature; apparent MW from standard proteins
[2] = biological target: TDP(1–77)-C39/C50S (human) (UniProt Q13148); test: SEC; protein at 250 µM; Superdex-200 Increase 10/300 GL; Buffer A; room temperature
[3] = biological target: TDP(1–77)-C39/C50S (human) (UniProt Q13148); test: SEC; protein at 500 µM; Superdex-200 Increase 10/300 GL; Buffer A; room temperature
[4] = biological target: TDP(1–77)-C39/C50S (human) (UniProt Q13148); test: SEC; protein at 10 µM; Superdex-200 Increase 10/300 GL; Buffer A; room temperature
[5] = biological target: the molecule itself; test: SEC; protein at 50 µM; Superdex-200 Increase 10/300 GL; Buffer A (25 mM Tris-HCl, pH 8.0, 150 mM NaCl); room temperature; apparent MW from standard proteins
[6] = biological target: the molecule itself; test: SEC; series of different protein concentrations (Fig. S1, Fig. S2D,E); Buffer A; room temperature
[7] = biological target: the molecule itself; test: SEC; protein at 500 µM; Superdex-200 Increase 10/300 GL; Buffer A; room temperature
[8] = biological target: the molecule itself; test: SEC; protein at 250 µM; Superdex-200 Increase 10/300 GL; Buffer A; room temperature
[9] = biological target: the molecule itself; test: SEC; protein at 500 µM treated with 5 mM DTT; Superdex-200 Increase 10/300 GL; Buffer A; room temperature
[10] = biological target: the molecule itself; test: SEC; protein at 10 µM; Superdex-200 Increase 10/300 GL; Buffer A; room temperature
[11] = biological target: the molecule itself; test: SEC; protein at 50 µM; Superdex-200 Increase 10/300 GL; Buffer A (25 mM Tris-HCl, pH 8.0, 150 mM NaCl); room temperature; apparent MW from standard proteins; remark: listed apart in the source

stoichiometry N [1]: 1.7 | stoichiometry N [2]: 1.8 | stoichiometry N [3]: 1.8 | stoichiometry N [4]: 1.7
Molecule: TDP(1–77)-C39/C50S (from UniProt Q13148 1-77) (domain or fragment)

B1: TDP(1–89) (domain or fragment, human, UniProt Q13148 1-89, looked up)
chain: MSEYIRVTEDENDEPIEIPSEDDGTVLLSTVTAQFPGACGLRYRNPVSQCMRGVRLVEGILHAPDAGWGNLVYVVNYPKDNKRKMDETD
notes: TDP-43, human, residues 1-89; pET22b, Nde I/Xho I; C-terminal His6 surmised; Printed theoretical MW 11.1 kDa; also called TDP-43 NTD; source: E. coli BL21 (DE3), purified (Ni2+-NTA, SEC)
stoichiometry N [5]: 2.4

B2: TDP(1–89) Cys mutant (Cys39 and Cys50 to Ser) (domain or fragment, human, UniProt Q13148 1-89, looked up)
chain: B1 chain with C39S, C50S
notes: TDP-43, human, residues 1-89 with Cys39 and Cys50 mutated to Ser; pET22b, Nde I/Xho I; C-terminal His6 surmised; also called TDP(1–89) mutant; source: E. coli BL21 (DE3), purified (Ni2+-NTA, SEC)
binding result [6]: binds

B3: TDP(1–77) (domain or fragment, human, UniProt Q13148 1-77, looked up)
chain: MSEYIRVTEDENDEPIEIPSEDDGTVLLSTVTAQFPGACGLRYRNPVSQCMRGVRLVEGILHAPDAGWGNLVYVVNY
notes: TDP-43, human, residues 1-77; pET22b, Nde I/Xho I; C-terminal His6 surmised; Printed theoretical MW 9.6 kDa; PDB 2N4P (cited) is His6-TDP(1–77); also called N-terminal 77-residue construct; wild-type TDP(1–77); source: E. coli BL21 (DE3), purified (Ni2+-NTA, SEC)
stoichiometry N [7]: 2.3 | stoichiometry N [8]: 2.1 | stoichiometry N [9]: 2.4 | stoichiometry N [10]: 1.7 | stoichiometry N [11]: 1.8
